Test results published in PMC3467281.

Biological target: T1, Fas (mouse (endogenous in WEHI-231)) (UniProt P25446)
T1 sequence: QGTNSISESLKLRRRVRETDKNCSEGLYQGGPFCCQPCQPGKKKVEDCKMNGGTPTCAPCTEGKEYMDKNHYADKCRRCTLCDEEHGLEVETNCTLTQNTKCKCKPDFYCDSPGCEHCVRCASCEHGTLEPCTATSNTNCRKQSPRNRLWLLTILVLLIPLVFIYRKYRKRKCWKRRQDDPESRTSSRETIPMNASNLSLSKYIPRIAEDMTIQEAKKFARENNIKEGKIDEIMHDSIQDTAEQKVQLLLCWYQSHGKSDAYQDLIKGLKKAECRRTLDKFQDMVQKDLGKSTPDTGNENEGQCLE

FasL (from UniProt P41047 1-279) (ligand)
survival of p21–35-loaded WEHI-231 cells co-cultured with the cytolytic CD4+ T cell clone R3TB7, restored by increasing concentrations of an anti-FasL antibody (Annexin V / 7-AAD) (% of WEHI-231 cell survival): 80
